Data published in paper PMC2897767, “Two Distinct Mechanisms for Actin Capping Protein Regulation—Steric and Allosteric Inhibition” (PLoS Biology, 2010).
Where two headings read alike, the source gives them in different places. One block for each molecule: values may come before it.

Columns and labels:
CP [1] = assay: SPR binding of CP to immobilized GST-CD2AP / GST-CARMIL fragments; parameters: species or system chicken; settings: 20°C; for kon / koff: SPR (Biacore), CP perfused, 1:1 binding model; for kon: GST-fusion immobilized via anti-GST antibody on CM5 chip, 50 mM KCl, 1 mM MgCl2, 0.005% Tween-20, 10 mM imidazole pH 7.0; for koff: GST-fusion immobilized
Experimental: (§1) Expression vectors for chicken CPfull and CPΔβC were constructed in pETDuet-1 by PCR, using pET-3d/CP [38] as the template. CP was expressed in E. coli Rosetta2 (DE3) and was purified as described. V-1 (human), expressed in E. coli Rosetta2 (DE3) as a GST-fusion protein, was affinity-purified and the tag was removed. Synthetic peptides derived from CARMIL proteins were obtained from Invitrogen. For crystallization, CP was incubated with a 1.2–2.0-fold molar excess of V-1 or CARMIL peptides at 4°C for 2 h, followed by gel filtration to purify the complexes. Expression vectors for the GST-CA constructs were prepared from the mouse cDNA clone as previously described. Vectors for GST-CD fragments were constructed by PCR cloning using a human whole brain cDNA library (Clontech) as the template. Amplified DNA fragments were cloned into pGEX-6P-1. GST-fusion proteins were expressed in E. coli Rosetta2 (DE3) cells and affinity-purified using glutathione sepharose resin. Mutations were introduced using a Quikchange mutagenesis kit (Stratagene). Actin was prepared from rabbit skeletal muscle, as previously described, and was further purified by gel filtration chromatography. Pyrene labeled-actin was prepared as described. Spectrin-actin seeds were prepared from rabbit red blood cells, as previously described.
(§2) The binding affinities of CP for V-1 or CARMIL proteins were evaluated by surface plasmon resonance measurements with Biacore 3000 or Biacore 2000 instruments (GE Healthcare). GST-fusion proteins (GST-V-1, GST-CA, or GST-CD) were immobilized onto a CM5 sensor chip up to 200 RU (response units; 200 pg/mm^2) via anti-GST antibodies. CP at various concentrations in running buffer (50 mM KCl, 1 mM MgCl2, 0.005% Tween-20, 10 mM imidazole, pH 7.0) was perfused over the chip at 20°C, at a flow rate of 20 µl/min. Response curves were obtained by subtracting the background signal generated simultaneously on a control flow cell with immobilized GST. To measure the effect of the CARMIL peptides on the facilitation of CP/V-1 dissociation (in Figure 11C and 11D), we used the “co-inject” mode for successive injections of the peptides followed by CP. Kinetic parameters were determined by fitting the sensorgrams to a simple 1∶1 binding model, using the Bia-evaluation software (GE Healthcare). KD values were obtained from the kinetic rate constants. […] KD values were evaluated by plotting these values against the concentrations of CP.

CP [2] = settings: ref Fujiwara, et al.; cited from earlier work
Description: We tested the importance of the C-terminal flanking regions of the CP-binding motif using a binding assay (Table 2; the constructs used for the measurement are shown in Figure 9B). […] In the second CP binding site in the CP/CBR115 complex, human CARMIL Val1034 (corresponding to mouse CA1038), which is missing in GST-76, forms multiple interactions with CP α-subunit residues. Thus, the absence of this key valine in GST-CA76 results in the lower CP binding affinity compared with the full active CARMIL fragments.

CP [3] = settings: estimated, cited from earlier work
Description: How do CARMIL proteins inhibit the capping activity of CP in an allosteric manner? […] We propose that CARMIL proteins inhibit CP in a similar manner (Figure 13C); CARMIL proteins limit the conformational distribution of CP to ...

CPfull (wild type CP) = assay: Actin polymerization assay (barbed end elongation from spectrin-actin seeds): inhibition of CP capping; format: biochemical, chicken; settings: actin 1.2 µM (5% pyrene-labeled), 7.2 nM CPfull, 25°C (Figure 9F)
Experimental: (A) Superposition of the C-termini of the peptides. CD Phe505 and CK Arg169 are shown as stick models. The conserved proline at the C-terminus of the motifs is shown as balls. (B) CD2AP constructs used for biochemical assays. (C) CARMIL constructs used for biochemical assays. […] Actin (1.2 µM, 5% pyrene-labeled) was polymerized from spectrin-actin seeds in the presence of 3.6 nM CPfull (D), 10 nM CPβΔC (E), or 7.2 nM CPfull (F) with various concentrations of CARMIL peptides or GST-CA constructs.
The barbed end elongation assay from spectrin-actin seeds was performed essentially as previously described. Briefly, G-actin was stored in G-buffer (0.2 mM CaCl2, 0.2 mM ATP, 0.5 mM DTT and 10 mM imidazole, pH 7.0). At 90 s prior to polymerization, the Ca^2+ was replaced with Mg^2+, by the addition of 1/10 volume of 10 mM EGTA and 1 mM MgCl2 to G-actin. […] Actin polymerization was measured by monitoring the pyrene-actin fluorescence (excitation 370 nm; emission 410 nm) at 25°C.
(0.16 MB TIF) Click here for additional data file.

CP (β) D67N = assay: SPR binding of mutant CP to immobilized GST-CD56 / GST-CA92; parameters: species or system chicken; settings: analyte CP (β) D67N, 20°C, pH 7.0
Experimental: as §1, §2

CP (β) D63N = assay: as above; parameters: species or system chicken; settings: analyte CP (β) D63N, 20°C, pH 7.0
Experimental: as §1, §2

CP (β) D44N = assay: as above; parameters: species or system chicken; settings: analyte CP (β) D44N, 20°C, pH 7.0
Experimental: as §1, §2

CP (β) Y64F = assay: as above; parameters: species or system chicken; settings: analyte CP (β) Y64F, 20°C, pH 7.0
Experimental: as §1, §2

B2: mCAH3: mCAH3 fragment, mouse CARMIL residues 965-1038 (protein, UniProt Q6EDY6 965-1038, looked up, fragment)
chain: VRQEKRSSGLISELPSEEGRRLEHFTKLRPKRNKKQQPTQAAVCTISILPQDGEQNGLMGRVDEGVDEFFTKKV
Kd (CP [2]): ~1 nM

B3: CARMIL: multi-domain protein (∼150 kDa) that binds CP and uncaps filaments (protein, UniProt Q6EDY6 1-1374, looked up)
F-actin-uncapping protein …: MTDESSDVPRELMESIKDVIGRKIKISVKKKVKLEVKGDRVENKVLVLTSCRAFLLSARIPSKLELTFSYLEIHGVICHKPAQMVVETEKCNMSMKMVSPEDVSEVLAHIGTCLRRIFPGLSPLRIMKKVSMEPSERLASLQALWDSQTLAEPGPCGGFSQMYACVCDWLGFSYKEEVQWDVDTIYLTQDTRELNLQDFSHLEHRDLIPIIAALEYNQWFTKLSSKDLKLSTDVCEQILRVVSRSNRLEELVLENAGLRIDFAQKLAGALAHNPNSGLHTINLAGNSLEDRGVSSLSIQFAKLPKGLKHLNLSKTSLSPKGVNSLCQSLSANPLTASTLTHLDLSGNALRGDDLSHMYNFLAQPNTIVHLDLSNTECSLEMVCSALLRGCLQCLAVLNLSRSVFSHRKGKEVPPSFKQFFSSSLALIQINLSGTKLSPEPLKALLLGLACNHSLKGVSLDLSNCELGHCLRSGGAQVLEGCIAEIHNITSLDISDNGLESDLSTLIVWLSKNRSIQHLALGKNFNNMKSKNLTPVLDNLVQMIQDEDSPLQSLSLADSKLKAEVTIIINALGSNTSLTKVDISGNGMGDMGAKMLAKALQINTKLRTVIWDKNNITAQGFQDIAVAMEKNYTLRFMPIPMYDAAQALKTNPEKTEEALQKIENYLLRNHETRKYLQEQAYRLQQGIVTSTTQQMIDRICVKVQDHLNSLRACGGDAIQEDLKAAERLMRDAKNSKTLLPNLYHVGGASWAGASGLSSSPIQETLESMAGEVTRVVDEQLKDLLESMVDAAETLCPNVMRKAHIRQDLIHASTEKISIPRTFVKNVLLEQSGIDILNKISEVKLTVASFLSDRIVDEILDSLSSSHRKLANHFSRLNKSLPQREDLEVELVEEKPVKRAILTVEDLTEVERLEDLDTCMMTPKSKRKSIHSRMLRPVSRAFEMEFDLDKALEEVPIHIEDPPFPSVRQEKRSSGLISELPSEEGRRLEHFTKLRPKRNKKQQPTQAAVCTISILPQDGEQNGLMGRVDEGVDEFFTKKVTKMDCKRSSSRSSDAHELGEGDEKKKRDSRRSGFLNLIKSRSRSERPPTVLMTEELSSPKGAMRSPPVDTTRKEIKAAEHNGAPDRTEEIKTPEPLEEGPAEEAGRAERSDSRGSPQGGRRYVQVMGSGLLAEMKAKQERRAACAQKKLGNDVISQDPSSPVSCNTERLEGGATVPKLQPGLPEARFGSGTPEKNAKAEPRVDGGCRSRSSSSMPTSPKPLLQSPKPSPSARPSIPQKPRTASRPEDTPDSPSGPSSPKVALLPPILKKVSSDKERDGQNSSQSSPRSFSQEASRRSWGPAQEYQEQKQRSSGKDGHQGSKCSDSGEEAEKEFIFV
affinity for barbed end-bound CP lower than for free CP (CP [3]; ref 23): 10- to 100 fold | affinity for barbed end-bound CP lower than for free CP (CP [3]; ref 29): 200 fold

B4: GST-CA92: GST fusion of mouse CARMIL residues 962–1053 (protein)
chain: FPSVRQEKRSSGLISELPSEEGRRLEHFTKLRPKRNKKQQPTQAAVCTISILPQDGEQNGLMGRVDEGVDEFFTKKVTKMDCKRSSSRSSDA
modifications: left off: GST, end not stated, kept
CP inhibitory activity of GST-CARMIL constructs (CPfull (wild type CP)): strongest CP inhibitory effect | koff (CP (β) D67N): >0.1 s⁻¹ | koff (CP (β) D63N): >0.1 s⁻¹ | koff (CP (β) D44N): >0.1 s⁻¹ | Kon (CP (β) Y64F): 460000 M⁻¹ s⁻¹ | koff (CP (β) Y64F): 0.0046 s⁻¹ | kon (CP [1]): 1.6e+06 M⁻¹ s⁻¹ | koff (CP [1]; pH 7.0): 0.0052 s⁻¹

Next, values leading:

kon (CP [1]): 230000 M⁻¹ s⁻¹ | koff (CP [1]; pH 7.0): 0.019 s⁻¹
B1: GST-CA76: GST fusion of mouse CARMIL residues 962–1037 (protein)
chain: FPSVRQEKRSSGLISELPSEEGRRLEHFTKLRPKRNKKQQPTQAAVCTISILPQDGEQNGLMGRVDEGVDEFFTKK
modifications: left off: GST, end not stated, kept

koff (CP [1]; pH 7.0): >0.1 s⁻¹ | KD (in words) (CP [1]; SPR, pH 7.0): micromolar range
B5: GST-CA63: GST fusion of mouse CARMIL residues 962–1024 (protein)
chain: FPSVRQEKRSSGLISELPSEEGRRLEHFTKLRPKRNKKQQPTQAAVCTISILPQDGEQNGLMG
modifications: left off: GST, end not stated, kept
